Source: PMC7720844

What was measured:
USP5 = USP5 (UniProt P45974); assay: anti-myc co-IP, immunoblot; conditions: reference: wild type
WTAP = WTAP (UniProt Q15007); assay: co-IP, immunoblot; conditions: reference: wild type; sites S43,S50,S525

METTL3 (from UniProt Q86U44) S50A
binding against the reference (USP5; sites S50): weaker

METTL3 (from UniProt Q86U44) S43A
binding against the reference (USP5; sites S43): weaker

METTL3 (from UniProt Q86U44) 3A (S43A/S50A/S525A)
binding against the reference (WTAP): weaker

METTL3 (from UniProt Q86U44) S525A
binding against the reference (USP5; sites S525): weaker
